From patent publication US20070224180 come the findings set out here.

One series deals with T1, PACAP(1-27).
T1 chain: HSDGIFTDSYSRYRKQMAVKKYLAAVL

The target in series [1] is T2, big endothelin (Big ET-1), P05305.
T2 chain: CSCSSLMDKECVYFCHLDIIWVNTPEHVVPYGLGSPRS

Another series has as its target T3, substance P, P20366.
T3 chain: RPKPQQFFGLM

In series [2] the target is T4, atrial natriuretic peptide (ANP), P01160.
T4 chain: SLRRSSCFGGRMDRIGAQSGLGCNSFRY

Series [3] addresses T5, endothelin (ET-1), P05305.
T5 chain: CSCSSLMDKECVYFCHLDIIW

The target of series [4] is T6, Fluorescence-quenched Big-ET-1 analogue (17 aa Big-ET).
T6 chain: DIAWFXTPEHVVPYGLG

Marks after values point to notes of the source that are not given here.

Chain of bradykinin, P01042 (P01042 whole entry, looked up): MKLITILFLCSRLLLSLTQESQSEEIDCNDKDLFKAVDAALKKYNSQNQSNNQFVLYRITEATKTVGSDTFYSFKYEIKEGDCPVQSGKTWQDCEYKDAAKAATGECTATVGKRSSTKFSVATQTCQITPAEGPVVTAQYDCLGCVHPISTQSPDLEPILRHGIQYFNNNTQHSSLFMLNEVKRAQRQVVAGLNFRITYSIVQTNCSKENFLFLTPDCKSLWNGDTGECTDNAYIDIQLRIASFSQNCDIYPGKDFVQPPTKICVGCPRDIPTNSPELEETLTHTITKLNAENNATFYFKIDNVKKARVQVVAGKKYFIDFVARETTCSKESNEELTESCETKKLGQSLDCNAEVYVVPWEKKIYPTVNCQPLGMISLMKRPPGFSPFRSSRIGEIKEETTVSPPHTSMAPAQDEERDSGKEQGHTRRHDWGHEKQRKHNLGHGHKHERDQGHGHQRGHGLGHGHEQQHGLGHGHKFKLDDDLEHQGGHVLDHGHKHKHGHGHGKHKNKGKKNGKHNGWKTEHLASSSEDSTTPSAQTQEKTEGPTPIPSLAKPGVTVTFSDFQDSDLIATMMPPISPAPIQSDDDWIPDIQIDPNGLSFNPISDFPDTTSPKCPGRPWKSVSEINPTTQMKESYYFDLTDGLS
Chain of angiotensin-1, P01019 (P01019 whole entry, looked up): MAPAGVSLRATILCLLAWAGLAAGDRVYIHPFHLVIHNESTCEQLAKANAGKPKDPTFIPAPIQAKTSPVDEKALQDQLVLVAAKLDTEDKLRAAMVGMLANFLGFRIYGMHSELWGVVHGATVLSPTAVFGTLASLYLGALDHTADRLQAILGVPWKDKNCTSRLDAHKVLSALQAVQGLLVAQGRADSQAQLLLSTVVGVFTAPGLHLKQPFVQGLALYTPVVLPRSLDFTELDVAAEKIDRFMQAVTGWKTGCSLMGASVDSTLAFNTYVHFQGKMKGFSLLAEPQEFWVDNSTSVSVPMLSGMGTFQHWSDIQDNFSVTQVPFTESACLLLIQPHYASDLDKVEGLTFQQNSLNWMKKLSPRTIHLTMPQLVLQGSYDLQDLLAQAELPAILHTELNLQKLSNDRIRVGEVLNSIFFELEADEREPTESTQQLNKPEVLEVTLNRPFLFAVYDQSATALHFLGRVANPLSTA

B1: ECE-1 (recombinantly produced endothelin converting enzyme-1) (protein)
chain: QYQTRSPSVCLSEACVSVTSSILSSMDPTVDPCHDFFSYACGGWIKANPVPDGHSRWGTFSNLWEHNQAIIKHLLENSTASVSEAERKAQVYYRACMNETRIEELRAKPLMELIERLGGWNITGPWAKDNFQDTLQVVTAHYRTSPFFSVYVSADSKNSNSNVIQVDQSGLGLPSRDYYLNKTENEKVLTGYLNYMVQLGKLLGGGDEEAIRPQMQQILDFETALANITIPQEKRRDEELIYHKVTAAELQTLAPAINWLPFLNTIFYPVEINESEPIVVYDKEYLEQISTLINTTDRCLLNNYMIWNLVRKTSSFLDQRFQDADEKFMEVMYGTKKTCLPRWKFCVSDTENNLGFALGPMFVKATFAEDSKSIATEIILEIKKAFEESLSTLKWMDEETRKSAKEKADAIYNMIGYPNFIMDPKELDKVFNDYTAVPDLYFENAMRFFNFSWRVTADQLRKAPNRDQWSMTPPMVNAYYSPTKNEIVFPAGILQAPFYTRSSPKALNFGGIGVVVGHELTHAFDDQGREYDKDGNLRPWWKNSSVEAFKRQTECMVEQYSNYSVNGEPVNGRHTLGENIADNGGLKAAYRAYQNWVKKNGAEHSLPTLGLTNNQLFFLGFAQVWCSVRTPESSHEGLITDPHSPSRFRVIGSLSNSKEFSEHFRCPPGSPMNPPHKCEVW
Turning to B1, the “cleavage of PACAP(1-27), HPLC” value in the series with PACAP(1-27) was “None of the aforementioned enzymes was able to cleave PACAP(1-27) under the assay conditions as described above for IGS5”.

B2: His6-tagged IGS5 ectodomain (recombinant soluble His-tagged human IGS5) (protein)
chain: GSHHHHHHSEVCTTPGCVIAAARILQNMDPTTEPCDDFYQFACGGWLRRHVIPETNSRYSIFDVLRDELEVILKAVLENSTAKDRPAVEKARTLYRSCMNQSVIEKRGSQPLLDILEVVGGWPVAMDRWNETVGLEWELERQLALMNSQFNRRVLIDLFIWNDDQNSSRHIIYIDQPTLGMPSREYYFNGGSNRKVREAYLQFMVSVATLLREDANLPRDSCLVQEDMMQVLELETQLAKATVPQEERHDVIALYHRMGLEELQSQFGLKGFNWTLFIQTVLSSVKIKLLPDEEVVVYGIPYLQNLENIIDTYSARTIQNYLVWRLVLDRIGSLSQRFKDTRVNYRKALFGTMVEEVRWRECVGYVNSNMENAVGSLYVREAFPGDSKSMVRELIDKVRTVFVETLDELGWMDEESKKKAQEKAMSIREQIGHPDYILEEMNRRLDEEYSNLNFSEDLYFENSLQNLKVGAQRSLRKLREKVDPNLWIIGAAVVNAFYSPNRNQIVFPAGILQPPFFSKEQPQALNFGGIGMVIGHEITHGFDDNGRNFDKNGNMMDWWSNFSTQHFREQSECMIYQYGNYSWDLADEQNVNGFNTLGENIADNGGVRQAYKAYLKWMAEGGKDQQLPGLDLTHEQLFFINYAQVWCGSYRPEFAIQSIKTDVHSPLKYRVLGSLQNLAAFADTFHCARGTPMHPKERCRVW
As to B2, the “% Hydrolysis” value is “(?)****” in series [1], 69% in the series with PACAP(1-27) and 41% in series [4]. Further, the % Hydrolysis (100 ng IGS5 polypeptide; 0.5 µM substrate; 2 h, 37° C.) was 100% with bradykinin, P01042; 100% with substance P, P20366; 5% in series [2]; 15% in the series with angiotensin-1, P01019; under 30% in series [3]. Moreover, the % Hydrolysis (**10 ng IGS5 polypeptide) with bradykinin, P01042 came out at 62%. Moreover, the % Hydrolysis (*500 ng IGS5 polypeptide) in series [2] was found to be 80%.

B3: XCE/DINE (recombinantly produced) (protein)
chain: KYLGPVAAGGGACPEGCPERKAFARAARFLAANLDASIDPCQDFYSFACGGWLRRHAIPDDKLTYGTIAAIGEQNEERLRRLLARPGGGPGGAAQRKVRAFFRSCLDMREIERLGPRPMLEVIEDCGGWDLGGAEERPGVAARWDLNRLLYKAQGVYSAAALFSLTVSLDDRNSSRYVIRIDQDGLTLPERTLYLAQDEDSEKILAAYRVFMERVLSLLGADAVEQKAQEILQVEQQLANITVSEHDDLRRDVSSMYNKVTLGQLQKITPHLRWKWLLDQIFQEDFSEEEEVVLLATDYMQQVSQLIRSTPHRVLHNYLVWRVVVVLSEHLSPPFREALHELAQEMEGSDKPQELARVCLGQANRHFGMALGALFVHEHFSAASKAKVQQLVEDIKYILGQRLEELDWMDAETRAAARAKLQYMMVMVGYPDFLLKPDAVDKEYEFEVHEKTYFKNILNSIRFSIQLSVKKIRQEVDKSTWLLPPQALNAYYLPNKNQMVFPAGILQPTLYDPDFPQSLNYGGIGTIIGHELTHGYDDWGGQYDRSGNLLHWWTEASYSRFLRKAECIVRLYDNFTVYNQRVNGKHTLGENIADMGGLKLAYHAYQKWVREHGPEHPLPRLKYTHDQLFFIAFAQNWCIKRRSQSIYLQVLTDKHAPEHYRVLGSVSQFEEFGRAFHCPKDSPMNPAHKCSVW
Consider B3, for which the “cleavage of PACAP(1-27), HPLC” value with PACAP(1-27) is recorded as “None of the aforementioned enzymes was able to cleave PACAP(1-27) under the assay conditions as described above for IGS5”.

B4: NEP (recombinantly produced and purified neutral endopeptidase, neprilysin) (protein)
chain: YDDGICKSSDCIKSAARLIQNMDATTEPCTDFFKYACGGWLKRNVIPETSSRYGNFDILRDELEVVLKDVLQEPKTEDIVAVQKAKALYRSCINESAIDSRGGEPLLKLLPDIYGWPVATENWEQKYGASWTAEKAIAQLNSKYGKKVLINLFVGTDDKNSVNHVIHIDQPRLGLPSRDYYECTGIYKEACTAYVDFMISVARLIRQEERLPIDENQLALEMNKVMELEKEIANATAKPEDRNDPMLLYNKMTLAQIQNNFSLEINGKPFSWLNFTNEIMSTVNISITNEEDVVVYAPEYLTKLKPILTKYSARDLQNLMSWRFIMDLVSSLSRTYKESRNAFRKALYGTTSETATWRRCANYVNGNMENAVGRLYVEAAFAGESKHVVEDLIAQIREVFIQTLDDLTWMDAETKKRAEEKALAIKERIGYPDDIVSNDNKLNNEYLELNYKEDEYFENIIQNLKFSQSKQLKKLREKVDKDEWISGAAVVNAFYSSGRNQIVFPAGILQPPFFSAQQSNSLNYGGIGMVIGHEITHGFDDNGRNFNKDGDLVDWWTQQSASNFKEQSQCMVYQYGNFSWDLAGGQHLNGINTLGENIADNGGLGQAYRAYQNYIKKNGEEKLLPGLDLNHKQLFFLNFAQVWCGTYRPEYAVNSIKTDVHSPGNFRIIGTLQNSAEFSEAFHCRKNSYMNPEKKCRVW
Consider B4, for which, in the series with PACAP(1-27), the “cleavage of PACAP(1-27), HPLC” value is “None of the aforementioned enzymes was able to cleave PACAP(1-27) under the assay conditions as described above for IGS5”.
